Assays:
[1] = molecular target: VpreB1 protein (Homo sapiens (Human)) (UniProt P12018); assay: flow cytometry, 1 ug FITC-conjugated antibody on 1x10^6 CA46 cells (endogenous VpreB1)
[2] = molecular target: VpreB1 protein (Homo sapiens (Human)) (UniProt P12018); assay: flow cytometry, 1 ug FITC-conjugated antibody on 1x10^6 GA-10 cells (endogenous VpreB1)
[3] = molecular target: VpreB1 protein (Homo sapiens (Human)) (UniProt P12018); assay: flow cytometry, 1 ug FITC-conjugated antibody on 1x10^6 HT cells (no detectable VpreB1 mRNA in Table 1; in effect a VpreB1-negative line)

Chain of UniProt P12018 (P12018 20-145 limits assumed): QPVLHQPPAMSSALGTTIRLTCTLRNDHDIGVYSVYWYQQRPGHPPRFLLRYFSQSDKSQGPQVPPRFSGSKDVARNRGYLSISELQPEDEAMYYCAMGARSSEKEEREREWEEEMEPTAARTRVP

**Q.** Which % of cells surface labeled (gate M1) [1] does the source give for “FITC-conjugated anti-VpreB1 monoclonal antibody (Serotec, Raleigh, N.C.)” here?
**A.** 69%

**Q.** What about the % of cells surface labeled (gate M1) [2] of the same substance?
**A.** 91%

**Q.** And the % of cells surface labeled (gate M1) [3]?
**A.** 3%

From US20030215453A1
